Experimental data reported in US20220002395A1 (FAPON BIOTECH, published 2022).

T1: Plasmodium falciparum histidine-rich protein II (HRP-II) (Plasmodium falciparum, UniProt P05227 22-332)
T1 construct: Coating antigen of all ELISAs; also called HRP-II protein; MA-HRPII Ag protein
T1 sequence (looked up): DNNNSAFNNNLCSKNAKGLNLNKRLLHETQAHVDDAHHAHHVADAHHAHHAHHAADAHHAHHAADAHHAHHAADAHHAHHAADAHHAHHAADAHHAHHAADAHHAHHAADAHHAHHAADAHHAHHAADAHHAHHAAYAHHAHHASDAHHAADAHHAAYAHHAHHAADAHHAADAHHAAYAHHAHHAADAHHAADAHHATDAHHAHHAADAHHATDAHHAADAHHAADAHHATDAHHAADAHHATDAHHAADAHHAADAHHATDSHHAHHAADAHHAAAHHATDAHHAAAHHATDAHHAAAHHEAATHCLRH

B1: Mutation 1-5 (antibody, mouse IgG2b, kappa, V domains shown)
VH: EVQLQQSGPEVVKPGASVKISCKASGSTLTDYYMNWVKQSHGKGLEWIGDVNPINGGTAYNQKFRDKATLTVDKSSNTAYMELRSLTSEDSALYYCTRGAEDYWGQGTTLTVSS
VL: DVVLTQTPLSLSVTIGQPASISCKSSQSILYSQGKIYLNWFQQRPGQSPKRLMYQVSKLEPGIPDRFSGSGSETDFTLKISRVEAEDLGVYYCLQGTYTPQTFGGGTKLEIKR
notes: Mutation 1 as framework
B2: Mutation 1-11 (antibody, mouse IgG2b, kappa, V domains shown)
VH: EVQLQQSGPEVVKPGASVKISCKASGYTITDYYMNWVKQSHGKGLEWIGDVNPINGGTAYNQKFRDKATLTVDKSSNTAYMELRSLTSEDSALYYCTKGAEDYWGQGTTLTVSS
VL: DVVLTQTPLSLSVTIGQPASISCKSSQSIIYSNGKIYLNWFQQRPGQSPKRLMYQVSKLEPGIPDRFSGSGSETDFTLKISRVEAEDLGVYYCLQATYTPQTFGGGTKLEIKR
notes: Mutation 1 as framework
B3: Mutation 1-7 (antibody, mouse IgG2b, kappa, V domains shown)
VH: EVQLQQSGPEVVKPGASVKISCKASGYTITDYYMNWVKQSHGKGLEWIGDINPINGGTAYQQKFRDKATLTVDKSSNTAYMELRSLTSEDSALYYCTRGAEDYWGQGTTLTVSS
VL: DVVLTQTPLSLSVTIGQPASISCKSSQSLIYSNGKIYLNWFQQRPGQSPKRLMYQISKLEPGIPDRFSGSGSETDFTLKISRVEAEDLGVYYCLQATYYPQTFGGGTKLEIKR
notes: Mutation 1 as framework
B4: Mutation 1-20 (antibody, mouse IgG2b, kappa, V domains shown)
VH: EVQLQQSGPEVVKPGASVKISCKASGSTITDYYMNWVKQSHGKGLEWIGDVNPIQGGTAYNQKFRDKATLTVDKSSNTAYMELRSLTSEDSALYYCTKGAEDYWGQGTTLTVSS
VL: DVVLTQTPLSLSVTIGQPASISCKSSQSIIYSQGKIYLNWFQQRPGQSPKRLMYQLSKLDPGIPDRFSGSGSETDFTLKISRVEAEDLGVYYCLQGTYYPQTFGGGTKLEIKR
notes: Mutation 1 as framework
B5: Mutation 1-15 (antibody, mouse IgG2b, kappa, V domains shown)
VH: EVQLQQSGPEVVKPGASVKISCKASGYTITDYYMNWVKQSHGKGLEWIGDLNPIQGGTAYNQKFRDKATLTVDKSSNTAYMELRSLTSEDSALYYCTRGAEDYWGQGTTLTVSS
VL: DVVLTQTPLSLSVTIGQPASISCKSSQSLIYSNGKIYLNWFQQRPGQSPKRLMYQLSKLEPGIPDRFSGSGSETDFTLKISRVEAEDLGVYYCLQGTYTPQTFGGGTKLEIKR
notes: Mutation 1 as framework
B6: Mutation 1-28 (antibody, mouse IgG2b, kappa, V domains shown)
VH: EVQLQQSGPEVVKPGASVKISCKASGYTITDYYMNWVKQSHGKGLEWIGDINPIQGGTAYQQKFRDKATLTVDKSSNTAYMELRSLTSEDSALYYCTKGAEDYWGQGTTLTVSS
VL: DVVLTQTPLSLSVTIGQPASISCKSSQSIIYSNGKIYLNWFQQRPGQSPKRLMYQVSKLDPGIPDRFSGSGSETDFTLKISRVEAEDLGVYYCLQATYTPQTFGGGTKLEIKR
notes: Mutation 1 as framework
B7: Mutation 1-10 (antibody, mouse IgG2b, kappa, V domains shown)
VH: EVQLQQSGPEVVKPGASVKISCKASGYTITDYYMNWVKQSHGKGLEWIGDINPINGGTAYNQKFRDKATLTVDKSSNTAYMELRSLTSEDSALYYCTRGAEDYWGQGTTLTVSS
VL: DVVLTQTPLSLSVTIGQPASISCKSSQSLLYSNGKIYLNWFQQRPGQSPKRLMYQVSKLDPGIPDRFSGSGSETDFTLKISRVEAEDLGVYYCLQGTYYPQTFGGGTKLEIKR
notes: Mutation 1 as framework
B8: Mutation 1-21 (antibody, mouse IgG2b, kappa, V domains shown)
VH: EVQLQQSGPEVVKPGASVKISCKASGTTLTDYYMNWVKQSHGKGLEWIGDLNPIQGGTAYNQKFRDKATLTVDKSSNTAYMELRSLTSEDSALYYCTRGAEDYWGQGTTLTVSS
VL: DVVLTQTPLSLSVTIGQPASISCKSSQSLLYSQGKIYLNWFQQRPGQSPKRLMYQLSKLEPGIPDRFSGSGSETDFTLKISRVEAEDLGVYYCLQGTYTPQTFGGGTKLEIKR
notes: Mutation 1 as framework
B9: Mutation 1-22 (antibody, mouse IgG2b, kappa, V domains shown)
VH: EVQLQQSGPEVVKPGASVKISCKASGYTITDYYMNWVKQSHGKGLEWIGDINPIQGGTAYQQKFRDKATLTVDKSSNTAYMELRSLTSEDSALYYCTKGAEDYWGQGTTLTVSS
VL: DVVLTQTPLSLSVTIGQPASISCKSSQSIIYSNGKIYLNWFQQRPGQSPKRLMYQVSKLDPGIPDRFSGSGSETDFTLKISRVEAEDLGVYYCLQATYSPQTFGGGTKLEIKR
notes: Mutation 1 as framework
B10: Mutation 1-6 (antibody, mouse IgG2b, kappa, V domains shown)
VH: EVQLQQSGPEVVKPGASVKISCKASGYTITDYYMNWVKQSHGKGLEWIGDLNPIQGGTAYNQKFRDKATLTVDKSSNTAYMELRSLTSEDSALYYCTKGAEDYWGQGTTLTVSS
VL: DVVLTQTPLSLSVTIGQPASISCKSSQSLIYSNGKIYLNWFQQRPGQSPKRLMYQISKLDPGIPDRFSGSGSETDFTLKISRVEAEDLGVYYCLQATYSPQTFGGGTKLEIKR
notes: Mutation 1 as framework
B11: Mutation 1-14 (antibody, mouse IgG2b, kappa, V domains shown)
VH: EVQLQQSGPEVVKPGASVKISCKASGYTLTDYYMNWVKQSHGKGLEWIGDVNPINGGTAYNQKFRDKATLTVDKSSNTAYMELRSLTSEDSALYYCTKGAEDYWGQGTTLTVSS
VL: DVVLTQTPLSLSVTIGQPASISCKSSQSLIYSNGKIYLNWFQQRPGQSPKRLMYQLSKLDPGIPDRFSGSGSETDFTLKISRVEAEDLGVYYCLQATYTPQTFGGGTKLEIKR
notes: Mutation 1 as framework
B12: Mutation 1-29 (antibody, mouse IgG2b, kappa, V domains shown)
VH: EVQLQQSGPEVVKPGASVKISCKASGYTITDYYMNWVKQSHGKGLEWIGDVNPIQGGTAYNQKFRDKATLTVDKSSNTAYMELRSLTSEDSALYYCTRGAEDYWGQGTTLTVSS
VL: DVVLTQTPLSLSVTIGQPASISCKSSQSIIYSQGKIYLNWFQQRPGQSPKRLMYQVSKLEPGIPDRFSGSGSETDFTLKISRVEAEDLGVYYCLQGTYYPQTFGGGTKLEIKR
notes: Mutation 1 as framework
B13: Mutation 1-19 (antibody, mouse IgG2b, kappa, V domains shown)
VH: EVQLQQSGPEVVKPGASVKISCKASGTTLTDYYMNWVKQSHGKGLEWIGDINPIQGGTAYNQKFRDKATLTVDKSSNTAYMELRSLTSEDSALYYCTRGAEDYWGQGTTLTVSS
VL: DVVLTQTPLSLSVTIGQPASISCKSSQSIIYSQGKIYLNWFQQRPGQSPKRLMYQISKLEPGIPDRFSGSGSETDFTLKISRVEAEDLGVYYCLQATYSPQTFGGGTKLEIKR
notes: Mutation 1 as framework
B14: Mutation 1-13 (antibody, mouse IgG2b, kappa, V domains shown)
VH: EVQLQQSGPEVVKPGASVKISCKASGSTLTDYYMNWVKQSHGKGLEWIGDINPIQGGTAYNQKFRDKATLTVDKSSNTAYMELRSLTSEDSALYYCTKGAEDYWGQGTTLTVSS
VL: DVVLTQTPLSLSVTIGQPASISCKSSQSILYSQGKIYLNWFQQRPGQSPKRLMYQISKLEPGIPDRFSGSGSETDFTLKISRVEAEDLGVYYCLQGTYYPQTFGGGTKLEIKR
notes: Mutation 1 as framework
B15: Mutation 1-25 (antibody, mouse IgG2b, kappa, V domains shown)
VH: EVQLQQSGPEVVKPGASVKISCKASGYTITDYYMNWVKQSHGKGLEWIGDINPIQGGTAYNQKFRDKATLTVDKSSNTAYMELRSLTSEDSALYYCTRGAEDYWGQGTTLTVSS
VL: DVVLTQTPLSLSVTIGQPASISCKSSQSLLYSQGKIYLNWFQQRPGQSPKRLMYQISKLEPGIPDRFSGSGSETDFTLKISRVEAEDLGVYYCLQGTYTPQTFGGGTKLEIKR
notes: Mutation 1 as framework
B16: Mutation 1-16 (antibody, mouse IgG2b, kappa, V domains shown)
VH: EVQLQQSGPEVVKPGASVKISCKASGYTITDYYMNWVKQSHGKGLEWIGDINPIQGGTAYNQKFRDKATLTVDKSSNTAYMELRSLTSEDSALYYCTRGAEDYWGQGTTLTVSS
VL: DVVLTQTPLSLSVTIGQPASISCKSSQSLLYSQGKIYLNWFQQRPGQSPKRLMYQVSKLDPGIPDRFSGSGSETDFTLKISRVEAEDLGVYYCLQGTYSPQTFGGGTKLEIKR
notes: Mutation 1 as framework
B17: Mutation 1-8 (antibody, mouse IgG2b, kappa, V domains shown)
VH: EVQLQQSGPEVVKPGASVKISCKASGYTITDYYMNWVKQSHGKGLEWIGDVNPIQGGTAYNQKFRDKATLTVDKSSNTAYMELRSLTSEDSALYYCTKGAEDYWGQGTTLTVSS
VL: DVVLTQTPLSLSVTIGQPASISCKSSQSLLYSQGKIYLNWFQQRPGQSPKRLMYQLSKLDPGIPDRFSGSGSETDFTLKISRVEAEDLGVYYCLQATYTPQTFGGGTKLEIKR
notes: Mutation 1 as framework
B18: Mutation 1-23 (antibody, mouse IgG2b, kappa, V domains shown)
VH: EVQLQQSGPEVVKPGASVKISCKASGTTLTDYYMNWVKQSHGKGLEWIGDVNPIQGGTAYNQKFRDKATLTVDKSSNTAYMELRSLTSEDSALYYCTRGAEDYWGQGTTLTVSS
VL: DVVLTQTPLSLSVTIGQPASISCKSSQSIIYSNGKIYLNWFQQRPGQSPKRLMYQVSKLEPGIPDRFSGSGSETDFTLKISRVEAEDLGVYYCLQGTYYPQTFGGGTKLEIKR
notes: Mutation 1 as framework
B19: Mutation 1-26 (antibody, mouse IgG2b, kappa, V domains shown)
VH: EVQLQQSGPEVVKPGASVKISCKASGTTLTDYYMNWVKQSHGKGLEWIGDVNPIQGGTAYNQKFRDKATLTVDKSSNTAYMELRSLTSEDSALYYCTRGAEDYWGQGTTLTVSS
VL: DVVLTQTPLSLSVTIGQPASISCKSSQSLLYSQGKIYLNWFQQRPGQSPKRLMYQLSKLDPGIPDRFSGSGSETDFTLKISRVEAEDLGVYYCLQGTYYPQTFGGGTKLEIKR
notes: Mutation 1 as framework
B20: Mutation 1-18 (antibody, mouse IgG2b, kappa, V domains shown)
VH: EVQLQQSGPEVVKPGASVKISCKASGYTLTDYYMNWVKQSHGKGLEWIGDLNPIQGGTAYNQKFRDKATLTVDKSSNTAYMELRSLTSEDSALYYCTKGAEDYWGQGTTLTVSS
VL: DVVLTQTPLSLSVTIGQPASISCKSSQSLLYSQGKIYLNWFQQRPGQSPKRLMYQISKLDPGIPDRFSGSGSETDFTLKISRVEAEDLGVYYCLQGTYTPQTFGGGTKLEIKR
notes: Mutation 1 as framework
B21: Mutation 1-17 (antibody, mouse IgG2b, kappa, V domains shown)
VH: EVQLQQSGPEVVKPGASVKISCKASGYTITDYYMNWVKQSHGKGLEWIGDVNPINGGTAYNQKFRDKATLTVDKSSNTAYMELRSLTSEDSALYYCTKGAEDYWGQGTTLTVSS
VL: DVVLTQTPLSLSVTIGQPASISCKSSQSLLYSQGKIYLNWFQQRPGQSPKRLMYQVSKLEPGIPDRFSGSGSETDFTLKISRVEAEDLGVYYCLQGTYYPQTFGGGTKLEIKR
notes: Mutation 1 as framework

Target: T1, Plasmodium falciparum histidine-rich …
Assay: indirect ELISA, four antigen coating concentrations;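 note: optical density read across an antibody dilution series at each antigen coating level, curves plotted on log scale, KD derived as reciprocal of the averaged constant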
Protocol: The OD values corresponding to different antibody concentrations with different coating concentrations are obtained. Under the same coating concentration, the antibody concentrations are used as an abscissa, the 00 values are used as an ordinate, and a logarithmic plot is made. […] An average value thereof is taken and a reciprocal thereof is calculated to get the affinity constant KD.

Going from B1 to B2, the Kd falls from 0.125 nM to 0.0213 nM (5.9-fold).

B3 and B4 are within 1.5-fold of each other in Kd: 0.329 nM for the first, 0.251 nM for the second.

Going from B5 to B6, the Kd falls from 0.245 nM to 0.012 nM (20-fold).

Going from B7 to B8, the Kd falls from 0.827 nM to 0.0828 nM (10-fold).

Going from B9 to B10, the Kd rises from 0.0814 nM to 0.415 nM (5.1-fold).

Compared with B11, B12 is 2.7-fold lower in Kd: 0.226 nM for the first, 0.0835 nM for the second.

B13 and B14 are within 1.5-fold of each other in Kd: 0.0835 nM for the first, 0.0865 nM for the second.

B15 and B16 are within 1.5-fold of each other in Kd: 0.444 nM for the first, 0.502 nM for the second.

Compared with B17, B18 is 1.8-fold higher in Kd: 0.198 nM for the first, 0.364 nM for the second. The first binds more tightly here.

Going from B19 to B20, the Kd falls from 0.211 nM to 0.051 nM (4.1-fold). The second binds more tightly here.

With B21 the Kd was 0.0824 nM.
